By IC50 is commonly meant the concentration at which inhibition is half-maximal. Higher therefore signals lower potency.

Holding throughout (assay): binding to purified HLA
The target of experiment [1] is DRB1*0405 (DR4w15).
The target of experiment [2] is DRB1*0404 (DR4w14).
Experiment [3] concerns the target DQA1*0301/DQB1*0301 (DQ3.1).
Experiment [4] has as its target DRB1*0802 (DR8w2).
The target in experiment [5] is DRB1*0101 (DR1) (human, UniProt P01903 26-254).
Experiment [6] concerns the target DRB4*0101 (DRw53).
Experiment [7] concerns the target DRB5*0101 (DR2w2β2).
Experiment [8] addresses DRB1*0901 (DR9).
In experiment [9] the target is DRB3*0101 (DR52a).
In experiment [10] the target is DQA1*0301/DQB1*0302 (DQ3.2).
Experiment [11] has as its target DQA1*0501/DQB1*0201 (DQ2).
In experiment [12] the target is DRB1*0701 (DR7).
Experiment [13] has as its target DRB1*1101 (DR5w11).
Experiment [14] concerns the target DRB1*0401 (DR4w4).
In experiment [15] the target is DRB1*1501 (DR2w2β1) (human).
In experiment [16] the target is DRB1*1201 (DR5w12).
The target in experiment [17] is HLA-DR6(13) (human).
In experiment [18] the target is DRB1*0301 (DR3w17).

Bounds are passed on as bounds.

On to SYPARYANAMAVGAT [B. lentus .160], for which the IC50 is 1.35 µM in experiment [1]; 5.54 µM in [2]; 0.063 µM in [3]; 2.03 µM in experiment [4]; 0.013 µM in experiment [5]; 8.26 µM in experiment [6]. Further, the concentration for half-maximal inhibition (IC50) in experiment [7] amounted to 1.73 µM; in experiment [8], 0.164 µM; in [9] it was 6.16 µM; in experiment [10], 1.05 µM; in experiment [11], 1.3 µM; in [12], 0.138 µM. Also, the IC50 in experiment [13] was determined as 5.55 µM; in experiment [14], 0.142 µM.

NGIEWAIANNMDVIN [BPN' Y217L .109]: the IC50 in [1] is 0.037 µM; in [2], 0.166 µM; in experiment [3], 2.18 µM; in [4], 2.19 µM; in [5], 0.0088 µM; in experiment [15], 0.683 µM. The IC50 stood at 1.07 µM in experiment [6]; 1.02 µM in [7]; 0.043 µM in experiment [8]; 1.24 µM in [16]; 0.119 µM in experiment [9]; 0.08 µM in experiment [10]. In addition, the half-maximal inhibitory concentration (IC50) came out at 0.097 µM in experiment [11], 0.058 µM in [12], 3.02 µM in experiment [13] and 0.03 µM in experiment [14].

As to NGIEWAIANNMDVIN [B. amyloliquifaciens subtilisin BPN' Y217L epitope peptide, amino acids 109-123], the IC50 in [17] was found to be 0.0098 µM.

Turning to GSISYPARYANAMAV [B. lentus 157], the IC50 in [1] was 6.78 µM; in experiment [18], 16.4 µM; in [2] it was 7.58 µM; in experiment [3] it was 6.01 µM; in experiment [4], over 16.3 µM; in experiment [5], 1.06 µM. For the same molecule, the IC50 in experiment [15] is 0.865 µM; in experiment [6], over 9.67 µM; in [8], 1.48 µM; in [9], over 9.43 µM; in experiment [10], 5.01 µM; in experiment [11] it was 6.16 µM. For the same molecule, the half-inhibitory concentration (IC50) in experiment [12] was 0.724 µM; in [14], 4.79 µM.

Take GTVAALNNSIGVLGV [BPN' Y217L .70]: the IC50 in experiment [1] was 0.166 µM; in experiment [18] it was 8.74 µM; in experiment [2], 0.0057 µM; in experiment [3], 0.44 µM; in experiment [4], 1.71 µM; in [5], 0.0065 µM. Also, the IC50 in experiment [15] worked out at 0.021 µM; in experiment [6], 0.031 µM; in experiment [7], 15.7 µM; in [8], 0.046 µM; in [16], 0.08 µM; in experiment [9] it was 2.01 µM. Also, the 50% inhibitory concentration (IC50) in experiment [10] came out at 2.07 µM; in experiment [11] it was 0.67 µM; in [12] it was 0.154 µM; in experiment [13], 2.38 µM; in [14], 0.033 µM.

With GSISYPARYANAMAV [B. lentus subtilisin epitope peptide, amino acids 157-171], in experiment [17], the half-maximal inhibitory concentration (IC50) is 2.01 µM.

SYPARYANAMAVGAT [B. lentus subtilisin epitope peptide, amino acids 160-174]: the IC50 in experiment [17] was 0.559 µM.

The record behind these values is patent publication US20080220450A1 (published 2008).
